Measurements as given in US20180155451A1 (published 2018).

T1: FcγRIIb extracellular domain with C-terminal His tag (human, UniProt P31994 43-217)
T1 construct: extracellular domain; soluble receptor expressed in FreeStyle293 cells, used as analyte in Biacore; also called FcgRIIb; 2b; not shown: His tag attached to the C terminus
T1 sequence (looked up): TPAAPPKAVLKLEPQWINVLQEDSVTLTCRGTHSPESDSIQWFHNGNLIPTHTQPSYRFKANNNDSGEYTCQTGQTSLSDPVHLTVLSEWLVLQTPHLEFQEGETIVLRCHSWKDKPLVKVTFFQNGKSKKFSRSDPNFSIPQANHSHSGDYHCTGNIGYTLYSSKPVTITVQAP


Columns and labels:
[1] = target: T1, FcγRIIb extracellular domain with …; experiment: SPR (Biacore), antibody captured on antigen peptide chip, FcγR as analyte; relative binding
[2] = target: T2, FcγRIa extracellular domain with C-terminal His tag (human, UniProt P12314 16-292); experiment: as above
T2 construct: extracellular domain; soluble receptor expressed in FreeStyle293 cells, used as analyte in Biacore; also called FcgRI; 1a; not shown: His tag attached to the C terminus
T2 sequence (P12314 16-292): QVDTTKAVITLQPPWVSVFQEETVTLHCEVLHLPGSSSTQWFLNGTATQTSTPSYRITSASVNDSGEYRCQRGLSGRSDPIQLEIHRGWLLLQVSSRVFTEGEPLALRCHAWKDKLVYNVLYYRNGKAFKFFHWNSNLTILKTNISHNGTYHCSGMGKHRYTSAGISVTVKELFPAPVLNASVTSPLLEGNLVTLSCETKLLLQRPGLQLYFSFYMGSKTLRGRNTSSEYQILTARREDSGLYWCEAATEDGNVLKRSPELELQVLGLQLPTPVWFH

Binder | He/Con_2b [1] | He/Con_1a [2]
GpH7-A5/GpH7-B3 variant A330_09D/GpL16-k0 (antibody, human IgG1, kappa, heterodimerized anti-glypican-3 IgG1; alteration in the GpH7-B3 chain only; also called He Ab) heavy 1: not shown heavy 2: not shown light: DIVMTQSPLSLPVTPGEPASISCQASESLVHSNRNTYLHWYLQKPGQSPQLLIYKVSNRFSGVPDRFSGSGSGTDFTLKISRVEAEDVGVYYCSQNTHVPPTFGQGTKVEIERTVAAPSVFIFPPSDEQLKSGTASVVCLLNNFYPREAKVQWKVDNALQSGNSQESVTEQDSKDSTYSLSSTLTLSKADYEKHKVYACEVTHQGLSSPVTKSFNRGEC | 55.6 % of control GpH7-A5/GpH7-B3/GpL16-k0 (=100) | 109 % of control GpH7-A5/GpH7-B3/GpL16-k0 (=100)
GpH7-A5/GpH7-B3 variant D270_03V/GpL16-k0 (antibody, human IgG1, kappa, heterodimerized anti-glypican-3 IgG1; alteration in the GpH7-B3 chain only; also called He Ab) heavy 1: not shown heavy 2: not shown light: DIVMTQSPLSLPVTPGEPASISCQASESLVHSNRNTYLHWYLQKPGQSPQLLIYKVSNRFSGVPDRFSGSGSGTDFTLKISRVEAEDVGVYYCSQNTHVPPTFGQGTKVEIERTVAAPSVFIFPPSDEQLKSGTASVVCLLNNFYPREAKVQWKVDNALQSGNSQESVTEQDSKDSTYSLSSTLTLSKADYEKHKVYACEVTHQGLSSPVTKSFNRGEC | 39.5 % of control GpH7-A5/GpH7-B3/GpL16-k0 (=100) | 77.9 % of control GpH7-A5/GpH7-B3/GpL16-k0 (=100)
GpH7-A5/GpH7-B3 variant A330_18N/GpL16-k0 (antibody, human IgG1, kappa, heterodimerized anti-glypican-3 IgG1; alteration in the GpH7-B3 chain only; also called He Ab) heavy 1: not shown heavy 2: not shown light: DIVMTQSPLSLPVTPGEPASISCQASESLVHSNRNTYLHWYLQKPGQSPQLLIYKVSNRFSGVPDRFSGSGSGTDFTLKISRVEAEDVGVYYCSQNTHVPPTFGQGTKVEIERTVAAPSVFIFPPSDEQLKSGTASVVCLLNNFYPREAKVQWKVDNALQSGNSQESVTEQDSKDSTYSLSSTLTLSKADYEKHKVYACEVTHQGLSSPVTKSFNRGEC | 63.7 % of control GpH7-A5/GpH7-B3/GpL16-k0 (=100) | 106 % of control GpH7-A5/GpH7-B3/GpL16-k0 (=100)
GpH7-A5/GpH7-B3 variant A330_20W/GpL16-k0 (antibody, human IgG1, kappa, heterodimerized anti-glypican-3 IgG1; alteration in the GpH7-B3 chain only; also called He Ab) heavy 1: not shown heavy 2: not shown light: DIVMTQSPLSLPVTPGEPASISCQASESLVHSNRNTYLHWYLQKPGQSPQLLIYKVSNRFSGVPDRFSGSGSGTDFTLKISRVEAEDVGVYYCSQNTHVPPTFGQGTKVEIERTVAAPSVFIFPPSDEQLKSGTASVVCLLNNFYPREAKVQWKVDNALQSGNSQESVTEQDSKDSTYSLSSTLTLSKADYEKHKVYACEVTHQGLSSPVTKSFNRGEC | 76.1 % of control GpH7-A5/GpH7-B3/GpL16-k0 (=100) | 108 % of control GpH7-A5/GpH7-B3/GpL16-k0 (=100)
GpH7-A5/GpH7-B3 variant A330_10E/GpL16-k0 (antibody, human IgG1, kappa, heterodimerized anti-glypican-3 IgG1; alteration in the GpH7-B3 chain only; also called He Ab) heavy 1: not shown heavy 2: not shown light: DIVMTQSPLSLPVTPGEPASISCQASESLVHSNRNTYLHWYLQKPGQSPQLLIYKVSNRFSGVPDRFSGSGSGTDFTLKISRVEAEDVGVYYCSQNTHVPPTFGQGTKVEIERTVAAPSVFIFPPSDEQLKSGTASVVCLLNNFYPREAKVQWKVDNALQSGNSQESVTEQDSKDSTYSLSSTLTLSKADYEKHKVYACEVTHQGLSSPVTKSFNRGEC | 70.1 % of control GpH7-A5/GpH7-B3/GpL16-k0 (=100) | 107 % of control GpH7-A5/GpH7-B3/GpL16-k0 (=100)
GpH7-A5/GpH7-B3 variant A330_14T/GpL16-k0 (antibody, human IgG1, kappa, heterodimerized anti-glypican-3 IgG1; alteration in the GpH7-B3 chain only; also called He Ab) heavy 1: not shown heavy 2: not shown light: DIVMTQSPLSLPVTPGEPASISCQASESLVHSNRNTYLHWYLQKPGQSPQLLIYKVSNRFSGVPDRFSGSGSGTDFTLKISRVEAEDVGVYYCSQNTHVPPTFGQGTKVEIERTVAAPSVFIFPPSDEQLKSGTASVVCLLNNFYPREAKVQWKVDNALQSGNSQESVTEQDSKDSTYSLSSTLTLSKADYEKHKVYACEVTHQGLSSPVTKSFNRGEC | 77.9 % of control GpH7-A5/GpH7-B3/GpL16-k0 (=100) | 105 % of control GpH7-A5/GpH7-B3/GpL16-k0 (=100)
GpH7-A5/GpH7-B3 variant D270_07I/GpL16-k0 (antibody, human IgG1, kappa, heterodimerized anti-glypican-3 IgG1; alteration in the GpH7-B3 chain only; also called He Ab) heavy 1: not shown heavy 2: not shown light: DIVMTQSPLSLPVTPGEPASISCQASESLVHSNRNTYLHWYLQKPGQSPQLLIYKVSNRFSGVPDRFSGSGSGTDFTLKISRVEAEDVGVYYCSQNTHVPPTFGQGTKVEIERTVAAPSVFIFPPSDEQLKSGTASVVCLLNNFYPREAKVQWKVDNALQSGNSQESVTEQDSKDSTYSLSSTLTLSKADYEKHKVYACEVTHQGLSSPVTKSFNRGEC | 41.5 % of control GpH7-A5/GpH7-B3/GpL16-k0 (=100) | 74.6 % of control GpH7-A5/GpH7-B3/GpL16-k0 (=100)
GpH7-A5/GpH7-B3 variant A330_19Q/GpL16-k0 (antibody, human IgG1, kappa, heterodimerized anti-glypican-3 IgG1; alteration in the GpH7-B3 chain only; also called He Ab) heavy 1: not shown heavy 2: not shown light: DIVMTQSPLSLPVTPGEPASISCQASESLVHSNRNTYLHWYLQKPGQSPQLLIYKVSNRFSGVPDRFSGSGSGTDFTLKISRVEAEDVGVYYCSQNTHVPPTFGQGTKVEIERTVAAPSVFIFPPSDEQLKSGTASVVCLLNNFYPREAKVQWKVDNALQSGNSQESVTEQDSKDSTYSLSSTLTLSKADYEKHKVYACEVTHQGLSSPVTKSFNRGEC | 90.8 % of control GpH7-A5/GpH7-B3/GpL16-k0 (=100) | 105 % of control GpH7-A5/GpH7-B3/GpL16-k0 (=100)
GpH7-A5/GpH7-B3 variant D270_02A/GpL16-k0 (antibody, human IgG1, kappa, heterodimerized anti-glypican-3 IgG1; alteration in the GpH7-B3 chain only; also called He Ab) heavy 1: not shown heavy 2: not shown light: DIVMTQSPLSLPVTPGEPASISCQASESLVHSNRNTYLHWYLQKPGQSPQLLIYKVSNRFSGVPDRFSGSGSGTDFTLKISRVEAEDVGVYYCSQNTHVPPTFGQGTKVEIERTVAAPSVFIFPPSDEQLKSGTASVVCLLNNFYPREAKVQWKVDNALQSGNSQESVTEQDSKDSTYSLSSTLTLSKADYEKHKVYACEVTHQGLSSPVTKSFNRGEC | 48.3 % of control GpH7-A5/GpH7-B3/GpL16-k0 (=100) | 71.5 % of control GpH7-A5/GpH7-B3/GpL16-k0 (=100)
GpH7-A5/GpH7-B3 variant A330_15Y/GpL16-k0 (antibody, human IgG1, kappa, heterodimerized anti-glypican-3 IgG1; alteration in the GpH7-B3 chain only; also called He Ab) heavy 1: not shown heavy 2: not shown light: DIVMTQSPLSLPVTPGEPASISCQASESLVHSNRNTYLHWYLQKPGQSPQLLIYKVSNRFSGVPDRFSGSGSGTDFTLKISRVEAEDVGVYYCSQNTHVPPTFGQGTKVEIERTVAAPSVFIFPPSDEQLKSGTASVVCLLNNFYPREAKVQWKVDNALQSGNSQESVTEQDSKDSTYSLSSTLTLSKADYEKHKVYACEVTHQGLSSPVTKSFNRGEC | 95 % of control GpH7-A5/GpH7-B3/GpL16-k0 (=100) | 105 % of control GpH7-A5/GpH7-B3/GpL16-k0 (=100)
GpH7-A5/GpH7-B3 variant D270_05P/GpL16-k0 (antibody, human IgG1, kappa, heterodimerized anti-glypican-3 IgG1; alteration in the GpH7-B3 chain only; also called He Ab) heavy 1: not shown heavy 2: not shown light: DIVMTQSPLSLPVTPGEPASISCQASESLVHSNRNTYLHWYLQKPGQSPQLLIYKVSNRFSGVPDRFSGSGSGTDFTLKISRVEAEDVGVYYCSQNTHVPPTFGQGTKVEIERTVAAPSVFIFPPSDEQLKSGTASVVCLLNNFYPREAKVQWKVDNALQSGNSQESVTEQDSKDSTYSLSSTLTLSKADYEKHKVYACEVTHQGLSSPVTKSFNRGEC | 13.9 % of control GpH7-A5/GpH7-B3/GpL16-k0 (=100) | 67.1 % of control GpH7-A5/GpH7-B3/GpL16-k0 (=100)
GpH7-A5/GpH7-B3 variant A330_11K/GpL16-k0 (antibody, human IgG1, kappa, heterodimerized anti-glypican-3 IgG1; alteration in the GpH7-B3 chain only; also called He Ab) heavy 1: not shown heavy 2: not shown light: DIVMTQSPLSLPVTPGEPASISCQASESLVHSNRNTYLHWYLQKPGQSPQLLIYKVSNRFSGVPDRFSGSGSGTDFTLKISRVEAEDVGVYYCSQNTHVPPTFGQGTKVEIERTVAAPSVFIFPPSDEQLKSGTASVVCLLNNFYPREAKVQWKVDNALQSGNSQESVTEQDSKDSTYSLSSTLTLSKADYEKHKVYACEVTHQGLSSPVTKSFNRGEC | 95 % of control GpH7-A5/GpH7-B3/GpL16-k0 (=100) | 103 % of control GpH7-A5/GpH7-B3/GpL16-k0 (=100)
GpH7-A5/GpH7-B3 variant D270_06M/GpL16-k0 (antibody, human IgG1, kappa, heterodimerized anti-glypican-3 IgG1; alteration in the GpH7-B3 chain only; also called He Ab) heavy 1: not shown heavy 2: not shown light: DIVMTQSPLSLPVTPGEPASISCQASESLVHSNRNTYLHWYLQKPGQSPQLLIYKVSNRFSGVPDRFSGSGSGTDFTLKISRVEAEDVGVYYCSQNTHVPPTFGQGTKVEIERTVAAPSVFIFPPSDEQLKSGTASVVCLLNNFYPREAKVQWKVDNALQSGNSQESVTEQDSKDSTYSLSSTLTLSKADYEKHKVYACEVTHQGLSSPVTKSFNRGEC | 48.2 % of control GpH7-A5/GpH7-B3/GpL16-k0 (=100) | 78.8 % of control GpH7-A5/GpH7-B3/GpL16-k0 (=100)
GpH7-A5/GpH7-B3 variant D270_04F/GpL16-k0 (antibody, human IgG1, kappa, heterodimerized anti-glypican-3 IgG1; alteration in the GpH7-B3 chain only; also called He Ab) heavy 1: not shown heavy 2: not shown light: DIVMTQSPLSLPVTPGEPASISCQASESLVHSNRNTYLHWYLQKPGQSPQLLIYKVSNRFSGVPDRFSGSGSGTDFTLKISRVEAEDVGVYYCSQNTHVPPTFGQGTKVEIERTVAAPSVFIFPPSDEQLKSGTASVVCLLNNFYPREAKVQWKVDNALQSGNSQESVTEQDSKDSTYSLSSTLTLSKADYEKHKVYACEVTHQGLSSPVTKSFNRGEC | 53.1 % of control GpH7-A5/GpH7-B3/GpL16-k0 (=100) | 78.1 % of control GpH7-A5/GpH7-B3/GpL16-k0 (=100)
GpH7-A5/GpH7-B3 variant A330_16H/GpL16-k0 (antibody, human IgG1, kappa, heterodimerized anti-glypican-3 IgG1; alteration in the GpH7-B3 chain only; also called He Ab) heavy 1: not shown heavy 2: not shown light: DIVMTQSPLSLPVTPGEPASISCQASESLVHSNRNTYLHWYLQKPGQSPQLLIYKVSNRFSGVPDRFSGSGSGTDFTLKISRVEAEDVGVYYCSQNTHVPPTFGQGTKVEIERTVAAPSVFIFPPSDEQLKSGTASVVCLLNNFYPREAKVQWKVDNALQSGNSQESVTEQDSKDSTYSLSSTLTLSKADYEKHKVYACEVTHQGLSSPVTKSFNRGEC | 87.6 % of control GpH7-A5/GpH7-B3/GpL16-k0 (=100) | 106 % of control GpH7-A5/GpH7-B3/GpL16-k0 (=100)
